The nature of the series: protein stability index of a GFP-peptide fusion (GPS, HEK-293T) (PSI 1-6); higher = more stable.
Setting [1] is: treatment: DMSO, c terminus: a fixed tail appended.
Where [2] appears, read: treatment: MLN4924 1 uM, 8 h, c terminus: a fixed tail appended.
[3] abbreviates: treatment: DMSO, c terminus: native.
[4] abbreviates: treatment: MLN4924 1 uM, 8 h, c terminus: native.

± gives the standard deviation.
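Further: 24-mer peptide tiles fused after GFP, lentivirally expressed, FACS-sorted into six equal bins by GFP/DsRed ratio, decoded by Illumina sequencing, PSI is the read-weighted mean bin number.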

Turning to VPTCSMCKVFGIHKACEVAPLQSV [TRIM63], the protein stability index reads like this: under setting [1], 2.64 ± 0.32; under setting [2], 2.73 ± 0.14.

For VQHQRVHTGEKPYKCLECGKAFSQ [ZNF24], the protein stability index stood at 3.29 ± 0.55 under setting [1] and 3.66 ± 0.46 under setting [2].

In the case of VQVPEAWEELLTMKVEAKSHLQWQ [ZSCAN9], the protein stability index was 2.46 ± 0.65 under setting [1] and 2.54 ± 0.26 under setting [2].

In the case of VSARSREGRGGRPGSTRPHRSACS [HAGHL], the protein stability index reads like this: under setting [1], 4.64 ± 0.2; under setting [2], 4.69 ± 0.44.

Consider VSERSFDNVRSLKVESGAWIGYEH [CRYBA1], for which the protein stability index is, setting by setting: under setting [1], 2.91 ± 0.47; under setting [2], 3.02 ± 0.33.

As to VSHVGWDPQNGFDVNNLDPDLRSL [WAS], the protein stability index is 3.9 ± 0.24 under setting [1] and 3.98 ± 0.3 under setting [2].

Sequence VSIKEAAGSSNLPAPERTMAGLSK [VENTX] gave a protein stability index under setting [1] of 4.28 ± 0.3 and a protein stability index under setting [2] of 4.33 ± 0.19.

As for VSLKQEGDDQPSETDHLSMEEEDP [TPRG1], the protein stability index reads like this: under setting [1], 5.61 ± 0.22; under setting [2], 5.63 ± 0.2.

On to VSSSQDGKVIVWDSFTTNKEHAVT [GNB5], for which the protein stability index is, setting by setting: under setting [1], 3.51 ± 0.23; under setting [2], 3.67 ± 0.38.

With VTPEAKNLINQMLTINPAKRITAH [CAMK2B], the protein stability index under setting [1] is 2.8 ± 0.14 and the protein stability index under setting [2] came out at 2.95 ± 0.3.

As for VTYSLLKRLKERSLDTLLEAVESR [SMAD6], the protein stability index by setting is: under setting [1], 2.26 ± 0.17; under setting [2], 2.33 ± 0.29.

Regarding VVHRSDEQQHYFNTPFQLSIAPPE [PPTC7], the protein stability index is, setting by setting: under setting [1], 3.96 ± 0.28; under setting [2], 4 ± 0.24.

Consider VVPDVRSVVTTARMQVLKRQVQSL [SMARCE1], for which the protein stability index turned out to be 2.5 ± 0.14 under setting [1] and 2.85 ± 0.21 under setting [2].

For VWYVKKFGRYLEHLEVKFMNPYNA [FBXO39], the protein stability index reads like this: under setting [1], 2.66 ± 0.53; under setting [2], 2.02 ± 0.45.

In the case of VYCGAGVQKEHEEYMKNLLKVGGI [PCMTD2], the protein stability index is 2.75 ± 0.22 under setting [1] and 2.9 ± 0.28 under setting [2].

Take WDLRFRIIHETAVGMNFLHCMAPP [RIPK4]: the protein stability index was 2.89 ± 0.73 under setting [1] and 2.82 ± 0.83 under setting [2].

For WFLNALHSALGGTKKKKKTIVTDV [USP39], the protein stability index is, setting by setting: under setting [1], 2.6 ± 0.61; under setting [2], 2.19 ± 0.47.

Turning to WGRLTSYSGGGYYLDLPGSRQGSA [PKD2L1], the protein stability index is, setting by setting: under setting [1], 2.63 ± 0.18; under setting [2], 2.69 ± 0.18.

In the case of WIGYEHTSFCGQQFILERGEYPRW [CRYBA1], the protein stability index worked out at 2.69 ± 0.41 under setting [1] and 2.21 ± 0.15 under setting [2].

In the case of WIHCFEGVTAIIFCVALSDYDLVL [GNAI1], the protein stability index was 3.2 ± 0.53 under setting [1] and 3.22 ± 0.24 under setting [2].

For WNFDFVTETPLEGDFAWERVRGLG [CDKN1A], the protein stability index was determined as 2.54 ± 0.42 under setting [1] and 2.8 ± 0.39 under setting [2].

WNVAAPLYLKQSDLASAAAKQIME [INTS4] gave a protein stability index under setting [1] of 2.67 ± 0.13 and a protein stability index under setting [2] of 2.81 ± 0.05.

With WPSAKSAGWTLATLGEQGLPHQSH [SCNN1D], the protein stability index is, setting by setting: under setting [1], 3.36 ± 0.43; under setting [2], 3.17 ± 0.4.

On to WQVLKTHPGDPRFQCSLWHLYPL [POLD4], for which the protein stability index worked out at 2.42 ± 0.62 under setting [3] and 2.14 ± 0.33 under setting [4].

Turning to WRKRFTEQPITDFCSVIRINSTAP [ZNF277], the protein stability index reads like this: under setting [1], 2.48 ± 0.55; under setting [2], 2.23 ± 0.087.

In the case of WTLEDEIHSPAHPEIEKADDHLQQ [ZNF649], the protein stability index reads like this: under setting [1], 5.2 ± 0.34; under setting [2], 5.26 ± 0.3.

As for WVHKHFTEDIQTRQYRSIEVLIGA [SRPK2], the protein stability index reads like this: under setting [1], 2.37 ± 0.18; under setting [2], 2.27 ± 0.41.

For the sequence YAADRNCMWSKKCSGVACLVKDNP [WASL], the protein stability index worked out at 3.08 ± 0.95 under setting [1] and 2.49 ± 0.3 under setting [2].

With YCHPDSETDEDEEEGDEQQRLLNT [GMCL1], the protein stability index under setting [1] is 5.33 ± 0.37 and the protein stability index under setting [2] turned out to be 5.2 ± 0.36.

Take YEETGFYEIEIQAEDGGAYLATAK [PCDHGA10]: the protein stability index is 3.57 ± 0.14 under setting [1] and 3.72 ± 0.29 under setting [2].

Consider YEIRVKTNLPIFKLKESTVRRRYS [SNX3], for which the protein stability index is, setting by setting: under setting [1], 2.44 ± 0.4; under setting [2], 2.27 ± 0.22.

Consider YGPQVNNISHTKEKKKGKAKKKRL [WASL], for which the protein stability index runs as follows: under setting [1], 4.48 ± 0.34; under setting [2], 4.68 ± 0.29.

Regarding YGQFTCEGCKSFFKRSVRRNLSYT [NR2F2], the protein stability index amounted to 2.33 ± 0.12 under setting [1] and 2.33 ± 0.21 under setting [2].

For YGYAAQARARERERLAHSRAAAAA [KCNA4], the protein stability index under setting [1] was 3.9 ± 0.26 and the protein stability index under setting [2] came out at 4.02 ± 0.097.

As to YHLEKQTALLGGPRRCHSAPPQGS [PLEKHN1], the protein stability index by setting is: under setting [1], 3.28 ± 0.036; under setting [2], 3.14 ± 0.53.

On to YIGTHEYPHFSHRPSTLQAASTPQ [OAS1], for which the protein stability index under setting [1] turned out to be 2.61 ± 0.56 and the protein stability index under setting [2] was 3.16 ± 0.48.

Turning to YKCAECGKSFCHSTHLTVHRRIHT [ZNF8], the protein stability index reads like this: under setting [1], 3.9 ± 0.18; under setting [2], 4.42 ± 0.16.

YLLQFARKPVEAESVEGVVRILLE [INTS4]: the protein stability index under setting [1] came to 2.19 ± 0.24 and the protein stability index under setting [2] stood at 2.27 ± 0.25.

Regarding YLMKTKQFRLKEAFDYIKQRRSMV [DUSP5], the protein stability index turned out to be 2.19 ± 0.38 under setting [1] and 2.11 ± 0.33 under setting [2].

Turning to YLSPLERKRLAREMQLSEVQIKTW [VENTX], the protein stability index was 2.5 ± 0.2 under setting [1] and 2.7 ± 0.24 under setting [2].

For YMAICKPLHELITMNRRVCVLMLL [OR4A15], the protein stability index by setting is: under setting [1], 2.79 ± 0.49; under setting [2], 2.35 ± 0.32.

With YMDTKLLVARFLEQSSCTMTPDIH [FAM189A2], the protein stability index turned out to be 2.15 ± 0.45 under setting [1] and 2.18 ± 0.084 under setting [2].

For the sequence YNWEEERATNHLDQVPSMQDGSES [SPAG8], the protein stability index by setting is: under setting [1], 5.33 ± 0.23; under setting [2], 5.44 ± 0.15.

Take YPPLEGHVRQGVFSSLNHIVEKRV [INTS3]: the protein stability index came out at 3.17 ± 0.3 under setting [1] and 3.38 ± 0.38 under setting [2].

For the sequence YRFDSSSCSSEDNLSLVCLPRSED [DRICH1], the protein stability index is, setting by setting: under setting [1], 4.46 ± 0.16; under setting [2], 4.51 ± 0.15.

As to YRQPIPVQELVLEDLQDGDVRMGG [NET1], the protein stability index is, setting by setting: under setting [1], 4.4 ± 0.29; under setting [2], 4.56 ± 0.34.

With YRTWNVVVHDWLYSYVYQDGLRLL [SOAT2], the protein stability index worked out at 3.02 ± 0.41 under setting [1] and 2.82 ± 0.84 under setting [2].

For YSPRRSRGSPRYSPRHSRSRSRT [SRSF1], the protein stability index by setting is: under setting [3], 4.18 ± 0.35; under setting [4], 4.49 ± 0.26.

Take YTFLYLVCISTKTQCSEEDQCKIN [FEM1B]: the protein stability index was determined as 2.65 ± 0.51 under setting [1] and 2.33 ± 0.2 under setting [2].

Consider YTGPSSSGRFAGREWYYGNVTRHQ [NCK2], for which the protein stability index stood at 2.35 ± 0.31 under setting [1] and 2.65 ± 0.58 under setting [2].

In the case of YVKVLHHMVKISGGPHISYPPLHE [MAGEA3], the protein stability index stood at 2.33 ± 0.61 under setting [1] and 2.58 ± 0.31 under setting [2].

For the sequence YVPNMLGIIPYAGIDLAVYETLKN [SLC25A25], the protein stability index reads like this: under setting [1], 2.87 ± 0.19; under setting [2], 2.61 ± 0.5.

For the origin of these results see the supplement of paper PMC10567573.
